Results from patent US20200079833A1 (AstraZeneca / MedImmune, published 2020).
Starred links: 1 amine or outer side, 2 acyl side, 3 side chain; linkers in the order of their positions; H or OH if unused. Non-standard residues stand in square brackets, D forms with d. Groups on a side chain read outwards from the residue. Primed or numbered codes have the meaning given here. No end group written: not given here. *: point of attachment. γGlu = O=C(O)[C@H](CCC(=O)[*:2])N[*:1]; Stearoyl = CCCCCCCCCCCCCCCCCC(=O)*; αMeF = C[C@](N)(Cc1ccccc1)C(=O)O; αMeK = C[C@](N)(CCCCN)C(=O)O; αMeS = C[C@](N)(CO)C(=O)O; PEG2′ = not defined here; Aib = CC(C)(N)C(=O)O

T1: glucose-dependent insulinotropic peptide (gastric inhibitory polypeptide) receptor (GIPR) (human, UniProt P48546 22-466)
T1 sequence (looked up): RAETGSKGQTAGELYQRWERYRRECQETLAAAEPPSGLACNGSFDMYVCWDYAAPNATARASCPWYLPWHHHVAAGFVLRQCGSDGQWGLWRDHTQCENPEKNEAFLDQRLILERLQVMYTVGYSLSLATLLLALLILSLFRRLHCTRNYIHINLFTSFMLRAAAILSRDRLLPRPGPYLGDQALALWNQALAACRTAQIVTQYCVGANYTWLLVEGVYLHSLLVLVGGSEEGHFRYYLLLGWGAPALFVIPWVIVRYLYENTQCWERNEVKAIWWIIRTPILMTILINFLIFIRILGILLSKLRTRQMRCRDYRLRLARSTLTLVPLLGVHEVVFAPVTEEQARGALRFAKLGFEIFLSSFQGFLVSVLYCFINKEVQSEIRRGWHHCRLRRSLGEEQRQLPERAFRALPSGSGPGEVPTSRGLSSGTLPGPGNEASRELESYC


These binders were tested against T1, glucose-dependent insulinotropic … (assay: cell-based or functional assay).

Row | Binder | cAMP Primary assay EC50 GIP-R [nM] | cAMP Primary assay EC50 GIP-R (2nd) [nM]
1 | H[Aib]EGK([PEG2′-PEG2′-γGlu-Stearoyl])[αMeF]TSDV[αMeS]S[αMeF]LEGEAA[αMeK]E[αMeF]IA[αMeF]VV[αMeK]GG-NH2 [SEQ ID NO 124] | 25 | 25.1
2 | H[Aib]K([PEG2′-PEG2′-γGlu-Stearoyl])GS[αMeF]TSDV[αMeS]S[αMeF]LEGEAA[αMeK]E[αMeF]IA[αMeF]VV[αMeK]GG-NH2 [SEQ ID NO 126] | 25 | 25.4
3 | H[Aib]EGS[αMeF]TK([PEG2′-PEG2′-γGlu-Stearoyl])DV[αMeS]S[αMeF]LEGEAA[αMeK]E[αMeF]IA[αMeF]VV[αMeK]GG-NH2 [SEQ ID NO 121] | 25 | 25.1
4 | H[Aib]EK([PEG2′-PEG2′-γGlu-Stearoyl])S[αMeF]TSDV[αMeS]S[αMeF]LEGEAA[αMeK]E[αMeF]IA[αMeF]VV[αMeK]GG-NH2 [SEQ ID NO 125] | 25 | 24.9
5 | H[Aib]EGS[αMeF]TSDV[αMeS]S[αMeF]LK([PEG2′-PEG2′-γGlu-Stearoyl])GEAA[αMeK]E[αMeF]IA[αMeF]VV[αMeK]GG-NH2 [SEQ ID NO 114] | 25 | 25.4
6 | H[Aib]EGS[αMeF]TSDV[αMeS]S[αMeF]LEK([PEG2′-PEG2′-γGlu-Stearoyl])EAA[αMeK]E[αMeF]IA[αMeF]VV[αMeK]GG-NH2 [SEQ ID NO 113] | 25 | 24.9

Second part, the binder after the results:

Row | cAMP Primary assay EC50 GIP-R [nM] | cAMP Primary assay EC50 GIP-R (2nd) [nM] | Binder
7 | 25 | 25.3 | H[Aib]EGS[αMeF]TSK([PEG2′-PEG2′-γGlu-Stearoyl])V[αMeS]S[αMeF]LEGEAA[αMeK]E[αMeF]IA[αMeF]VV[αMeK]GG-NH2 [SEQ ID NO 120]
8 | 25 | 25.3 | H[Aib]EGS[αMeF]TSDV[αMeS]S[αMeF]K([PEG2′-PEG2′-γGlu-Stearoyl])EGEAA[αMeK]E[αMeF]IA[αMeF]VV[αMeK]GG-NH2 [SEQ ID NO 115]
9 | 25 | 25 | H[Aib]EGS[αMeF]TSDV[αMeS]S[αMeF]LEGEAK([PEG2′-PEG2′-γGlu-Stearoyl])[αMeK]E[αMeF]IA[αMeF]VV[αMeK]GG-NH2 [SEQ ID NO 110]

These binders were tested against GLP-1 receptor (GLP-1R) (human, UniProt P43220 24-463) (assay: cell-based or functional assay).

Row | Binder | cAMP Mean pM GLP-1R [pM] | cAMP Primary assay EC50 GLP-1R n1 [nM] | cAMP Primary assay EC50 GLP-1R n2 [nM]
10 | H[Aib]EGK([PEG2′-PEG2′-γGlu-Stearoyl])[αMeF]TSDV[αMeS]S[αMeF]LEGEAA[αMeK]E[αMeF]IA[αMeF]VV[αMeK]GG-NH2 [SEQ ID NO 124] | 25100 | 25 | 25.1
11 | H[Aib]K([PEG2′-PEG2′-γGlu-Stearoyl])GS[αMeF]TSDV[αMeS]S[αMeF]LEGEAA[αMeK]E[αMeF]IA[αMeF]VV[αMeK]GG-NH2 [SEQ ID NO 126] | 25400 | 25 | 25.4
12 | H[Aib]EGS[αMeF]TK([PEG2′-PEG2′-γGlu-Stearoyl])DV[αMeS]S[αMeF]LEGEAA[αMeK]E[αMeF]IA[αMeF]VV[αMeK]GG-NH2 [SEQ ID NO 121] | 25100 | 25 | 25.1
13 | H[Aib]EK([PEG2′-PEG2′-γGlu-Stearoyl])S[αMeF]TSDV[αMeS]S[αMeF]LEGEAA[αMeK]E[αMeF]IA[αMeF]VV[αMeK]GG-NH2 [SEQ ID NO 125] | 24900 | 25 | 24.9
14 | H[Aib]EGS[αMeF]TSDV[αMeS]S[αMeF]LK([PEG2′-PEG2′-γGlu-Stearoyl])GEAA[αMeK]E[αMeF]IA[αMeF]VV[αMeK]GG-NH2 [SEQ ID NO 114] | 503 | 0.55 | 0.458
15 | H[Aib]EGS[αMeF]TSDV[αMeS]S[αMeF]LEK([PEG2′-PEG2′-γGlu-Stearoyl])EAA[αMeK]E[αMeF]IA[αMeF]VV[αMeK]GG-NH2 [SEQ ID NO 113] | 18 | 0.018 | 0.0174

More lines, now with the values ahead:

Row | cAMP Mean pM GLP-1R [pM] | cAMP Primary assay EC50 GLP-1R n1 [nM] | cAMP Primary assay EC50 GLP-1R n2 [nM] | Binder
16 | 3640 | 4.1 | 3.13 | H[Aib]EGS[αMeF]TSK([PEG2′-PEG2′-γGlu-Stearoyl])V[αMeS]S[αMeF]LEGEAA[αMeK]E[αMeF]IA[αMeF]VV[αMeK]GG-NH2 [SEQ ID NO 120]
17 | 6 | 0.006 | 0.00539 | H[Aib]EGS[αMeF]TSDV[αMeS]S[αMeF]K([PEG2′-PEG2′-γGlu-Stearoyl])EGEAA[αMeK]E[αMeF]IA[αMeF]VV[αMeK]GG-NH2 [SEQ ID NO 115]
18 | 62 | 0.06 | 0.0639 | H[Aib]EGS[αMeF]TSDV[αMeS]S[αMeF]LEGEAK([PEG2′-PEG2′-γGlu-Stearoyl])[αMeK]E[αMeF]IA[αMeF]VV[αMeK]GG-NH2 [SEQ ID NO 110]

What follows are binders tested against glucagon receptor (GCGR) (human, UniProt P47871 26-477) (assay: cell-based or functional assay).
glucagon receptor (GCGR), sequence (P47871 26-477): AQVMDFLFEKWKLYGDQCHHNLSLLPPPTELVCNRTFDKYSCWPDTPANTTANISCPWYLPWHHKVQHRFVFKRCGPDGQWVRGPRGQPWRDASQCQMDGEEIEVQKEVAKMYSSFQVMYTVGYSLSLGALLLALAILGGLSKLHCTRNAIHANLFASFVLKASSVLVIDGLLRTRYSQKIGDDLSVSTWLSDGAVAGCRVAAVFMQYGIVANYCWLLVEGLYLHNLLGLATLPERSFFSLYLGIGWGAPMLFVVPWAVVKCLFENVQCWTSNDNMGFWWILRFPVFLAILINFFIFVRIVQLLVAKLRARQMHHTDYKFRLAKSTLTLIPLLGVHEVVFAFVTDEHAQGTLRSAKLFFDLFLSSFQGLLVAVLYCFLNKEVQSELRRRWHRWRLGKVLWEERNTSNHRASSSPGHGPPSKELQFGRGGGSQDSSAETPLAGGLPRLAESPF

Row | Binder | cAMP Primary assay EC50 Gluc-R [nM] | cAMP Primary assay EC50 Gluc-R (2nd) [nM]
19 | H[Aib]EGK([PEG2′-PEG2′-γGlu-Stearoyl])[αMeF]TSDV[αMeS]S[αMeF]LEGEAA[αMeK]E[αMeF]IA[αMeF]VV[αMeK]GG-NH2 [SEQ ID NO 124] | 25 | 25.1
20 | H[Aib]K([PEG2′-PEG2′-γGlu-Stearoyl])GS[αMeF]TSDV[αMeS]S[αMeF]LEGEAA[αMeK]E[αMeF]IA[αMeF]VV[αMeK]GG-NH2 [SEQ ID NO 126] | 25 | 25.4
21 | H[Aib]EGS[αMeF]TK([PEG2′-PEG2′-γGlu-Stearoyl])DV[αMeS]S[αMeF]LEGEAA[αMeK]E[αMeF]IA[αMeF]VV[αMeK]GG-NH2 [SEQ ID NO 121] | 25 | 25.1
22 | H[Aib]EK([PEG2′-PEG2′-γGlu-Stearoyl])S[αMeF]TSDV[αMeS]S[αMeF]LEGEAA[αMeK]E[αMeF]IA[αMeF]VV[αMeK]GG-NH2 [SEQ ID NO 125] | 25 | 24.9
23 | H[Aib]EGS[αMeF]TSDV[αMeS]S[αMeF]LK([PEG2′-PEG2′-γGlu-Stearoyl])GEAA[αMeK]E[αMeF]IA[αMeF]VV[αMeK]GG-NH2 [SEQ ID NO 114] | 25 | 25.4
24 | H[Aib]EGS[αMeF]TSDV[αMeS]S[αMeF]LEK([PEG2′-PEG2′-γGlu-Stearoyl])EAA[αMeK]E[αMeF]IA[αMeF]VV[αMeK]GG-NH2 [SEQ ID NO 113] | 25 | 24.9

Further lines, results first:

Row | cAMP Primary assay EC50 Gluc-R [nM] | cAMP Primary assay EC50 Gluc-R (2nd) [nM] | Binder
25 | 25 | 25.3 | H[Aib]EGS[αMeF]TSK([PEG2′-PEG2′-γGlu-Stearoyl])V[αMeS]S[αMeF]LEGEAA[αMeK]E[αMeF]IA[αMeF]VV[αMeK]GG-NH2 [SEQ ID NO 120]
26 | 25 | 25.3 | H[Aib]EGS[αMeF]TSDV[αMeS]S[αMeF]K([PEG2′-PEG2′-γGlu-Stearoyl])EGEAA[αMeK]E[αMeF]IA[αMeF]VV[αMeK]GG-NH2 [SEQ ID NO 115]
27 | 25 | 25 | H[Aib]EGS[αMeF]TSDV[αMeS]S[αMeF]LEGEAK([PEG2′-PEG2′-γGlu-Stearoyl])[αMeK]E[αMeF]IA[αMeF]VV[αMeK]GG-NH2 [SEQ ID NO 110]
